These results are taken from paper PMC3873232.

Experiment [1] deals with unmodified Spt5 CTD peptide (S. pombe). The experiment can be described thus: pull-down; biotinylated peptides (50 µg) on streptavidin Dynabeads incubated with 50-200 ng TAP-purified factor in 200 µl (20 mM Hepes pH 7.6, 37.5 mM KOAc, 2.5 mM MgOAc, 5% glycerol, 0.075% Triton X-100), 4°C, 1 h; washes with 250 mM KOAc; immunoblot with a TAP antibody; percent bound by ImageJ. On the technique in general: In western blotting, separated proteins are transferred to a membrane and probed.

Experiment [2] addresses Thr1-P form of the Spt5 CTD peptide (S. pombe). The experiment is described as above.

The substance “PAF complex purified from the tpr1-TAP strain (from UniProt O42668 1-1039; Q9UUE7 1-371)” returned a percent bound in experiment [1] of 5%.

Take “Prf1-CBP (TAP-purified, native Prf1) (natural protein)”: the percent bound came to 10% in experiment [1] and 35% in experiment [2].
